US20030135880A1, “Compositions and methods for halogenation reactions” (priority 2002, published 2003)

How the values were obtained:
PrnA = target: T1, PrnA (Pseudomonas fluorescens, UniProt P95480); test: Activation of PrnA by electron transferases, 2 h assay (Example 2); format: biochemical; conditions: 20 microliter PrnA, 50 microliter NADH, 50 microliter electron transferase, room temperature
T1 construct: made in house; host or cells: Pseudomonas fluorescens BL915deltaORF1-4 with plasmid pPEH14 (prnA)
Method: The following components are used in examples 1-4 below: PrnA (described for Example 1 above) at 0.36 mg/ml, Assay Mixture containing HEPES (100 mM), glucose-6-phosphate, disodium salt (50 mM), D-Trp (5 mM), NaCl (5 mM). Aspergillus niger catalase (39 U/ml), bovine erythrocyte superoxide dismutase (15 U/ml), Leuconostoc mesenteroides glucose-6-phosphate dehydrogenase (10 U/ml). NADH-(3 mg/ml) NADPH (3 mg/ml).
Each assay contains the assay mixture, either NADH (for samples containing Fre and the NAD(P)H:FMN reductase) or NADPH (for samples containing FNR or FNR and Fd), PrnA and the indicated electron transferase. Negative control samples are incubated in parallel; these substituted buffer for PrnA. Quantification standards are prepared by diluting 0,1, 2 or 5 microliter of 7-Cl-Trp standard (1 mM) in 100 microliter Assay Mixture, 50 microliter NADH, 20 microliter PrnA and 50 microliter buffer; the tubes were heated to 100 C. prior to addition of PrnA, then heated an additional 2 min. Further processing is in parallel with the enzymatic reactions. All samples are mixed for 2 h at room temperature. Reactions are stopped and samples processed as described above in Example 1, including using the HPLC Analytical method PrnA1 as described in Example 1.

PrnC = target: T2, PrnC (Pseudomonas fluorescens, UniProt P95482); test: In vitro halogenation with PrnC: chlorination of MDA to APRN (Example 3); format: biochemical, P. fluorescens; conditions: Extract #2 (PrnC depleted of P2) plus 20 microliter electron transferase, NADH, overnight
T2 construct: made in house; host or cells: P. fluorescens (pPEH/prnC/134Δprn), plasmid pPEH-PrnC with tac promoter
T2 sequence (P95482 whole entry, looked up): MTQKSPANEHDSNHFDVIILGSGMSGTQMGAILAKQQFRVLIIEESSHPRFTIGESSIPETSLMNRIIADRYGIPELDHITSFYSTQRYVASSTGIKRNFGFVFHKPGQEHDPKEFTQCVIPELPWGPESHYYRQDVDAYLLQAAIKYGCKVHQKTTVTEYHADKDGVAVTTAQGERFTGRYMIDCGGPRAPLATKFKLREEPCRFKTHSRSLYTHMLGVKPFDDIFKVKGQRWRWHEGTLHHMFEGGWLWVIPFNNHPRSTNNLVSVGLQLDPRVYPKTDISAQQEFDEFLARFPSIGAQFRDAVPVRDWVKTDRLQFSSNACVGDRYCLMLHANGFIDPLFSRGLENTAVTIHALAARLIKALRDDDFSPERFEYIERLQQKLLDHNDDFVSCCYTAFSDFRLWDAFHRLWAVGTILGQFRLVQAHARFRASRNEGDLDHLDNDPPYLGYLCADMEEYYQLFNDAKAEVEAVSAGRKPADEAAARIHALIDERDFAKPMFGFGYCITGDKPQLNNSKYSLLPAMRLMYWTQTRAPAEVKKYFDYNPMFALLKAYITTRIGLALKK
Method: Fre, ferrodoxin NADP reductase, ferrodoxin and NADPH FMN-reductase are tested for the ability to activate P. fluorescens PrnC that was depleted of endogenous electron transferase (P2) as described below. PrnC catalyzes chlorination of monodechloroaminopyrrolnitrin (MDA) to yield aminopyrrolnitrin (APRN).
The following materials are prepared for use in assays described below. Buffer 100 mM Tris/Cl, 1 mM EDTA. pH 7.5. Monodechloroaminopyrrolnitrin (MDA) 74.2 mM is prepared by culture of Pseudomonas fluorescens expressing PrnA and PrnB as described in (Kirner et al,1998) which is herein incorporated by reference in its entirety. The assay mix comprises FAD (5 μM) and MDA (742 μM) in buffer. […]
The assays described below are run as follows; Extract #2 is mixed with the indicated electron transferase, assay mix and either NADH or NADPH as indicated. The native activity of PrnC prior to removal of the P2 activity is determined by a parallel sample in which extract #1 is mixed with assay mix and NADH. […] Samples are analyzed by PrnC_Iso method described below. The 220 nm absorbance chromatogram is analyzed and integrated. PrnC activity is expressed as 100 times the ratio of the APRN peak area to the sum of the peak areas of APRN and MDA. Assuming equal extinction coefficients at 220 nm the calculated ratio is equivalent to the net % conversion of MDA to APRN by halogenation. […]

T1 sequence (P95480 whole entry): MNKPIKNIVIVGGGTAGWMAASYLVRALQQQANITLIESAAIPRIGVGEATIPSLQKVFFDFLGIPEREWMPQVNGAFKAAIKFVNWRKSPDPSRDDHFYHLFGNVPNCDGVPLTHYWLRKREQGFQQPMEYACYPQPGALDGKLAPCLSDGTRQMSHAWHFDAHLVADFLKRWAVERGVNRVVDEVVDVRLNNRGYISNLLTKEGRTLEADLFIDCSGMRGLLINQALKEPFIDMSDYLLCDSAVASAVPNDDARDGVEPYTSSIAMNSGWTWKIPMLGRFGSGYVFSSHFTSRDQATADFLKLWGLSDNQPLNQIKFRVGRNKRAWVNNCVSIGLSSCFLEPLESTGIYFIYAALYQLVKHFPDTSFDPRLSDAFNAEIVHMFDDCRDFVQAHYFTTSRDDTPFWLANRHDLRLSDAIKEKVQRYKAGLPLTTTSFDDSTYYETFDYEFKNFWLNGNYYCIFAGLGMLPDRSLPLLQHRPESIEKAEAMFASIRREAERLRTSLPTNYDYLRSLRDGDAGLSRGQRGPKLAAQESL

ferrodoxin NADP reductase and ferrodoxin: Spinach ferredoxin NADP reductase used together with spinach ferredoxin (Fd)
Net 7-Cl-Trp produced (PrnA): 9.15 nmol
PrnC activity, conversion of MDA to APRN (PrnC): 2.5%
